Data set [1] deals with T1, WsTR-I (Withania somnifera, UniProt U5PUZ1).
T1 construct: His6-tagged (pET28a NdeI/BamHI), E. coli BL21 (DE3); Ni-NTA and gel filtration; homodimer about 60 kDa
Put plainly: spectrophotometric A340, NADPH oxidation. The class given is biochemical. Conditions: forward reaction, MES-NaOH pH 6.7, 30°C, kcat per monomer, unit inferred from kcat/Km. The source says: (§1) spectrophotometric A340, NADPH oxidation on WsTR-I

For data set [2], the target named is T1, WsTR-I. Put plainly: spectrophotometric A340, NADP+ reduction. It counts as biochemical. Conditions: reverse reaction; tropine; 30°C; printed kcat 0.54 (no unit) disagrees with printed kcat/Km. The source says: spectrophotometric A340, NADP+ reduction on WsTR-I
Data set [3] concerns the target Withania somnifera tropine forming tropinone reductase (WsTR-I), recombinant His6-WsTR-I (Withania somnifera). Briefly: SEC; calibrated Sephadex G-150 column (70.0 cm x 0.6 cm), 0.1 M MES-NaOH pH 6.7 with 0.1 M NaCl, 5 ml/h; markers ovalbumin, BSA, alcohol dehydrogenase; elution followed by catalytic activity; native mass about 60 kDa compared with the 29.41 kDa subunit.

Data set [4] concerns CN1[C@@H]2CC[C@H]1CC(=O)C2. Put plainly: spectrophotometric A340, NADPH oxidation. It counts as biochemical, Withania somnifera. Conditions: forward reaction, MES-NaOH pH 6.7, 30°C, kcat per monomer, unit inferred from kcat/Km.
Text: as §1

Consider `CC1CCCC(=O)C1` (stereo not shown) [3-methyl-cyclohexanone], for which the Km in data set [1] (NADPH) turned out to be 2.11 mM. Regarding `NC(=O)C1=CN([C@@H]2O[C@H](COP(=O)(O)OP(=O)(O)OC[C@H]3O[C@@H](n4cnc5c(N)ncnc54)[C@H](OP(=O)(O)O)[C@@H]3O)[C@@H](O)[C@H]2O)C=CC1` [NADPH], the Km in data set [1] (tropinone) stood at 0.00043 mM. Regarding `NC(=O)c1ccc[n+]([C@@H]2O[C@H](COP(=O)(O)OP(=O)(O)OC[C@H]3O[C@@H](n4cnc5c(N)ncnc54)[C@H](OP(=O)(O)O)[C@@H]3O)[C@@H](O)[C@H]2O)c1` [NADP^+], the Michaelis constant (Km) in data set [2] came to 96.2 µM.

For the compound “Withania somnifera tropine forming tropinone reductase (WsTR-I), recombinant His6-WsTR-I (enzyme)”, the stoichiometry N in data set [3] was determined as 2.

With WsTR-I (Withania somnifera), in data set [4], the Km stood at 1.27 mM, the kcat worked out at 9.51 s⁻¹ and the kcat/Km was determined as 7490 M⁻¹ s⁻¹.

The record behind these values is publication PMC3783447, “Tropine Forming Tropinone Reductase Gene from Withania somnifera (Ashwagandha): Biochemical Characteristics of the Recombinant Enzyme and Novel Physiological Overtones of Tissue-Wide Gene Expression Patterns” (PLoS ONE, 2013).
